According to patent US20090275047A1 (published 2009):

Biological target: the molecule itself
Assay: X-ray crystal structure; crystal lattice contact between symmetry-related molecules

B1: human soluble adenylate cyclase catalytic domain, construct solAC-2056 (M1-V469 with non-cleavable C-terminal His6 tag) (enzyme)
chain: MNTPKEEFQDWPIVRIAAHLPDLIVYGHFSPERPFMDYFDGVLMFVDISGFTAMTEKFSSAMYMDRGAEQLVEILNYHISAIVEKVLIFGGDILKFAGDALLALWRVERKQLKNIITVVIKCSLEIHGLFETQEWEEGLDIRVKIGLAAGHISMLVFGDETHSHFLVIGQAVDDVRLAQNMAQMNDVILSPNCWQLCDRSMIEIESVPDQRAVKVNFLKPPPNFNFDEFFTKCTTFMHYYPSGEHKNLLRLACTLKPDPELEMSLQKYVMESILKQIDNKQLQGYLSELRPVTIVFVNLMFEDQDKAEEIGPAIQDAYMHITSVLKIFQGQINKVFMFDKGCSFLCVFGFPGEKVPDELTHALECAMDIFDFCSQVHKIQTVSIGVASGIVFCGIVGHTVRHEYTVIGQKVNLAARMMMYYPGIVTCDSVTYNGSNLPAYFFKELPKKVMKGVADSGPLYQYWGRTEKVHHHHHH
modifications: possible acetylation of the N-terminus at Met1 (electron density peak, not modelled)
notes: Expressed in Hi 5 insect cells and crystallised in space group P63; The protein-protein contact recorded is between symmetry-related copies of this molecule in the crystal; also called construct 2056; solAC catalytic domain
B1: binds.
